Source: article PMC2151661
Values belong to the substance of their own block, whether it stands above or below them.

Tests used:
[1] = biological target: wild-type human epithelial Na+ channel (α, β, γ ENaC) (human) (UniProt P37088)
[2] = biological target: human ENaC αβγ_(V182G;V193G) (human) (UniProt P37088)
[3] = biological target: human ENaC αβγ_(A190G) (human) (UniProt P37088)
[4] = biological target: wild-type human epithelial Na+ channel (α, β, γ ENaC) (human) (UniProt P37088); remark: listed apart in the source
[5] = biological target: human ENaC αβγ_(V182G;V193G) (human) (UniProt P37088); remark: listed apart in the source
[6] = biological target: wild-type human epithelial Na+ channel (α, β, γ ENaC) (human) (UniProt P37088); remark: listed apart in the source
[7] = biological target: human ENaC αβγ_(A190G) (human) (UniProt P37088); remark: listed apart in the source
[8] = biological target: human ENaC αβγ_(V182G;V193G) (human) (UniProt P37088); remark: listed apart in the source
[9] = biological target: wild-type human epithelial Na+ channel (α, β, γ ENaC) (human) (UniProt P37088); remark: listed apart in the source
[10] = biological target: human ENaC αβγ_(V182G;V193G) (human) (UniProt P37088); remark: listed apart in the source
[11] = biological target: wild-type human epithelial Na+ channel (α, β, γ ENaC) (human) (UniProt P37088); remark: listed apart in the source
[12] = biological target: human ENaC αβγ_(V182G;V193G) (human) (UniProt P37088); remark: listed apart in the source
[13] = biological target: wild-type human epithelial Na+ channel (α, β, γ ENaC) (human) (UniProt P37088); remark: listed apart in the source
[14] = biological target: human ENaC αβγTh (thrombin consensus sequence LVPRG at γ186-190) (human) (UniProt P37088)

Substance: porcine pancreatic elastase (from UniProt P00772 27-266) (enzyme)
ΔIPR^Norm, 300 nM PE, aprotinin-treated FRT cells (comparison with αβγTh) [1]: 0.7 | time constant τ of INa activation by 1,000 nM PE, aprotinin-treated FRT cells [2]: 2.17 min | ΔIPR^Norm, 1,000 nM PE, aprotinin-treated FRT cells [2]: 0.89 | ΔIPR^Norm, 1,000 nM PE, aprotinin-treated FRT cells [3]: 0.26 | time constant τ of INa activation by 1,000 nM PE, aprotinin-treated FRT cells [4]: 1.94 min | ΔIPR^Norm, 1,000 nM PE, aprotinin-treated FRT cells [4]: 0.7 | time constant τ of INa activation by 300 nM PE, aprotinin-treated FRT cells [5]: 3.6 min | time constant τ of INa activation by 300 nM PE, aprotinin-treated FRT cells [6]: 2 min | K1/2 (PE concentration at half maximal stimulation of ΔIPR^Norm) [7]: 1140 nM | K1/2 (PE concentration at half maximal stimulation of ΔIPR^Norm) [8]: 35 nM | apparent KM from kobs of INa activation against PE concentration (Eq. 8) [8]: 0.29 µM | K1/2 (PE concentration at half maximal stimulation of ΔIPR^Norm) [9]: 77 nM | apparent KM from kobs of INa activation against PE concentration (Eq. 8) [9]: 0.204 µM

Substance: human neutrophil elastase (from UniProt P08246 30-267) (enzyme)
ΔIPR^Norm, 300 nM NE, aprotinin-treated FRT cells (comparison with αβγTh) [1]: 0.6 | K1/2 (NE concentration at half maximal stimulation of ΔIPR^Norm) [10]: 510 nM | K1/2 (NE concentration at half maximal stimulation of ΔIPR^Norm) [11]: 100 nM | apparent KM from kobs (1/τ) of INa activation against NE concentration (Eq. 8) [11]: 0.57 µM | ΔIPR^Norm against NE concentration, 30 to 1,000 nM, aprotinin-treated FRT cells [12]: 0.52 | ΔIPR^Norm against NE concentration, 30 to 1,000 nM, aprotinin-treated FRT cells [13]: 0.75

K1/2 (TH concentration at half maximal stimulation of ΔIPR^Norm) [14]: 14.8 nM | apparent KM from kobs of INa activation against TH concentration (Eq. 8) [14]: 0.34 µM | ΔIPR^Norm, 300 nM TH, aprotinin-treated FRT cells [1]: 0.1
Substance: human α thrombin (enzyme)
